Data: patent US11673947B2, “Target tissue-specific antigen-binding molecule” (Chugai Seiyaku Kabushiki Kaisha, priority 2012, dated 2023)

Assays:
[1] = biological target: T1, hIL-6R (Homo sapiens, UniProt P08887); experiment: IgG ELISA, binding to hIL-6R in mouse serum with or without kynurenine; conditions: Table 20: condition 1 (mouse serum without kynurenine) vs condition 2 (mouse serum in the presence of kynurenine)
T1 sequence (P08887 20-355 limits assumed): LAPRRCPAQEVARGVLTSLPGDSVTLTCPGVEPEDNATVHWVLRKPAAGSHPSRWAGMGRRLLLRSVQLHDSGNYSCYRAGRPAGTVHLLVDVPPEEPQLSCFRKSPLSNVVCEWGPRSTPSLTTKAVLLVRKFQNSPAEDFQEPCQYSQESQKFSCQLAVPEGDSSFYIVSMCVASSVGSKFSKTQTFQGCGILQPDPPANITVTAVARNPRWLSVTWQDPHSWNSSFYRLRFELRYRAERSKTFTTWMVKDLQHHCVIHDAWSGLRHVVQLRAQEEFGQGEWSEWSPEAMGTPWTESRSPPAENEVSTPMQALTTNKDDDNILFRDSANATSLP
Protocol: As described in Example 14, antibody 6RNMSC1-2_F02 which has antigen-binding activity in the presence of kynurenine, and the known anti-hIL-6R antibody MRA were subjected to ELISA under the two conditions described in Table 20. The antigen used was biotin-labeled hIL-6R.
First, a StreptaWell 96 microtiter plate (Roche) was coated at room temperature for one hour or more with 100 μl of PBS containing the biotin-labeled antigen. After washing with Wash buffer to remove unbound antigen from the plate, each well was blocked for one hour or more with 250 μl of Blocking Buffer. After Blocking Buffer was removed from each well, each of the purified IgGs was prepared to 2.5 μg/ml under condition 2 shown in Table 20, and aliquoted at 100 μl into the plate. The plate was allowed to stand at room temperature for one hour to allow binding of each IgG to the antigen in each well. After washing with Wash Buffer containing 100 μM kynurenine, an HRP-conjugated anti-human IgG antibody (BIOSOURCE) diluted with Sample Buffer containing kynurenine was added to each well. The plate was incubated for one hour. Following wash with Wash Buffer containing kynurenine, the TMB single solution (ZYMED) was added to each well. The chromogenic reaction in the solution of each well was terminated by adding sulfuric acid. Then, the developed color was assessed by measuring absorbance at 450 nm.

[2] = biological target: T1, hIL-6R; experiment: IgG ELISA, binding to hIL-6R in the presence or absence of each small molecule, amino acid or amino acid metabolite
Protocol: Three types of antibodies obtained: 6RNMSC1-2_F02 and 6RNMSC1-3_G02, and GC413 were subjected to ELISA under the nine conditions described in Table 3. Meanwhile, each small molecule was appropriately prepared at the concentrations shown in Table 3 using the buffers indicated in Table 19. The antigen used was biotin-labeled hIL-6R.
First, a StreptaWell 96 microtiter plate (Roche) was coated at room temperature for one hour or more with 100 μl of PBS containing biotin-labeled hIL-6R. After washing with Wash buffer to remove unbound biotin-labeled hIL-6R from the plate, each well was blocked for one hour or more with 250 μl of Blocking Buffer. After Blocking Buffer was removed from each well, the purified IgGs were prepared to 2.5 μg/ml in Sample Buffer containing small molecules at the final concentrations shown in Table 3, and each was aliquoted at 100 μl into the plate. The plate was allowed to stand at room temperature for one hour to allow binding of each IgG to biotin-labeled hIL-6R in each well. After washing with Wash Buffer containing small molecules at the final concentrations shown in Table 3, an HRP-conjugated anti-human IgG antibody (BIOSOURCE) diluted with Sample Buffer containing the same small molecules was added to each well. The plate was incubated for one hour. Following wash with Wash Buffer containing each small molecule, the TMB single solution (ZYMED) was added to each well. The chromogenic reaction in the solution of each well was terminated by adding sulfuric acid. Then, the developed color was assessed by measuring absorbance at 450 nm.
6RNMSC1-2_F02 described in Example 14, which has antigen-binding activity in the presence of kynurenine, and negative control GC413 were subjected to ELISA under the seven conditions described in Table 18. Meanwhile, each small molecule was appropriately prepared at the concentrations shown in Table 18 using the buffers indicated in Table 4. The antigen used was biotin-labeled hIL-6R. ELISA was carried out using the method described in Example 11.

B1: 6RNMSC1-2_F02: antibody that binds to hIL-6R in the presence of kynurenine; SEQ ID NOs: 86 and 87 (antibody, listed as Homo sapiens, V domains shown)
VH: QVQLVQSGAEVKKPGSSVKVSCKASGGTFSSYAISWVRQAPGQGLEWMGGIIPIFGTANYAQKFQGRVTITADESTSTAYMELSSLRSEDTAVYYCARDAPVVARPRGAFDIWGQGTMVTVSS
VL: DIVMTQTPLSSPVTLGQPASISCRSSQSLVHSDGNTYLSWLQQRPGQPPRLLIHEISNRFSGVPDRFSGSGAGTNFTLKISRVEAEDVGVYYCMQATQFPRTFGQGTKVEIK
With B1 the “absorbance under condition 1 as compared to condition 2” value [1] was “markedly lower”, the “absorbance under condition 5 compared to condition 1” value ([2]; Table 18: condition 5 (3-hydroxykynurenine solution)) was “the same high absorbance” and the “absorbance under condition 7 as compared to condition 1” value ([2]; Table 18: condition 7 (absence of small molecules) vs condition 1 (kynurenine solution)) was “markedly lower”. For the same molecule, the “absorbance under other conditions” value ([2]; Table 18: remaining conditions, incl. tryptophan) was “markedly lower”, the “absorbance under condition 7 compared to condition 8” value ([2]; condition 7 (100 μM kynurenine)) was “the same” and the “absorbance under condition 9 as compared to condition 8” value ([2]; condition 9 (in the absence of small molecules) vs condition 8 (complete small molecule cocktail solution)) was “markedly lower”. The “absorbance under other conditions” value ([2]; remaining conditions of Table 3) was “markedly lower”.
